From patent US20230103563A1 (Sanofi, published 2023)

Key:
[1] = molecular target: T1, human IL4 (IL004, Millipore) (human, UniProt P05112 25-153); test: SPR (Biacore), variant captured with human antibody capture kit, IL4 as analyte
T1 construct: Bought protein, used as analyte in SPR; also called interleukin IL4
T1 sequence (looked up): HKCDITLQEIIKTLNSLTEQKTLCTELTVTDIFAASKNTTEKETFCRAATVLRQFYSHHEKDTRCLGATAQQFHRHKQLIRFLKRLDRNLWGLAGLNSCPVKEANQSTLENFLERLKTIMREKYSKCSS
Method: (§1) Binding of antigens to the antibody constructs was measured using surface plasmon resonance (SPR) on a BIAcore 3000 instrument (GE Healthcare) with HBS-EP buffer (GE Healthcare). As antigens human IL4 (IL004, Millipore) and human IL13 (IL012, Millipore) were used. The capture antibody (human antibody capture kit, His capture kit, Fab capture kit, GE Life Sciences) was immobilized via primary amine groups (11000 RU) on a research grade CMS chip (GE Life Sciences) using standard procedures. […] The antigens human IL4 and human IL13 were used as analytes and injected for 240 sec with a dissociation time of 300 sec at a flow rate of 30 μL/min. IL4 and IL13 were used in a dilution series of 0.1 nM to 3 nM and 0.8 nM to 25 nM, respectively. Chip surfaces were regenerated with 2 min injects of the regeneration buffer provided with the capture kit. Sensorgrams were double referenced with a blank chip surface and HBS-EP buffer blanks. Recombinant human neonatal Fc-receptor (FcRn) protein was immobilized via primary amine groups (200 RU) in the sample flow cell compartment of a research grade CMS chip (GE Life Sciences) using standard procedures. The reference flow cell compartment was activated and deactivated without FcRn immobilization to generate a blank chip surface. For the analysis an assay buffer with pH 6.0 was used (150 mM NaCl, 20 mM Na-phosphate, 0.05% surfactant P20, pH6.0). The antibody was used as analyte at 800 nM dilution in assay buffer and injected over reference and sample flow cells for 240 sec with a dissociation time of 300 sec at a flow rate of 30 μL/min. Chip surfaces were regenerated with 2 min injects of HBS-EP buffer at 30 μl/min. Sensorgrams were double referenced with a the blank chip surface and HBS-EP buffer blanks. All data analysis was done using the BIAevaluation software v4.1.

[2] = molecular target: T1, human IL4 (IL004, Millipore); test: SPR (Biacore 3000), construct captured, IL4 as analyte; summary table
Method: as §1

[3] = molecular target: T1, human IL4 (IL004, Millipore); test: SPR (Biacore), variant captured with His-capture kit, IL4 as analyte
Method: as §1

[4] = molecular target: T1, human IL4 (IL004, Millipore); test: SPR (Biacore), variant captured with Fab-capture kit, IL4 as analyte
Method: as §1

| Binder | Kd [1] | koff [1] | kon [1] | Kd [2] | Ka [3] | Kd [3] | koff [3] | kon [3] | Ka [4] | Kd [4] | koff [4] | kon [4] |
| --- | --- | --- | --- | --- | --- | --- | --- | --- | --- | --- | --- | --- |
| protein variant (11), Split CH2 bivalent bispecific antibody (bispecific antibody, human IgG4 S228P, kappa, Four chains; on one arm CH1 and CL are replaced by the split CH2 domain; heavy chains heterodimerize by knob-into-hole mutations) heavy: EVQLKESGPGLVAPGGSLSITCTVSGFSLTDSSINWVRQPPGKGLEWLGMIWGDGRIDYADALKSRLSISKDSSKSQVFLEMTSLRTDDTATYYCARDGYFPYAMDFWGQGTSVTVSSASTKGPSVFPLAPCSRSTSESTAALGCLVKDYFPEPVTVSWNSGALTSGVHTFPAVLQSSGLYSLSSVVTVPSSSLGTKTYTCNVDHKPSNTKVDKRVESKYGPPCPPCPAPEFEGGPSVFLFPPKPKDTLMISRTPEVTCVVVDVSQEDPEVQFNWYVDGVEVHNAKTKPREEQFNSTYRVVSVLTVLHQDWLNGKEYKCKVSNKGLPSSIEKTISKAKGQPREPQVCTLPPSRDELTKNQVSLSCAVKGFYPSDIAVEWESNGQPENNYKTTPPVLDSDGSFFLVSKLTVDKSRWQQGNVFSCSVMHEALHNRFTQKSLSLSPG light: not shown chain 1: QVQLQQSGPELVKPGASVKISCKASGYSFTSYWIHWIKQRPGQGLEWIGMIDPSDGETRLNQRFQGRATLTVDESTSTAYMQLRSPTSEDSAVYYCTRLKEYGNYDSFYFDVWGAGTLVTVSSGGGGGSGGGGGSAKTKPREEQYNSTYRVVSVLTVLHQDWLNGKEYKCKVSNKALPAPIEKTISKAKGQPREGGGSGSAESKYGPPCPPCPAPEFEGGPSVFLFPPKPKDTLMISRTPEVTCVVVDVSQEDPEVQFNWYVDGVEVHNAKTKPREEQFNSTYRVVSVLTVLHQDWLNGKEYKCKVSNKGLPSSIEKTISKAKGQPREPQVYTLPPCRDELTKNQVSLWCLVKGFYPSDIAVEWESNGQPENNYKTTPPVLDSDGSFFLYSKLTVDKSRWQQGNVFSCSVMHEALHNHYTQKSLSLSPG chain 2: DIQMTQSPASLSVSVGDTITLTCHASQNIDVWLSWFQQKPGNIPKLLIYKASNLHTGVPSRFSGSGSGTGFTLTISSLQPEDIATYYCQQAHSYPFTFGGGTKLEIKGGGGPSVFLFPPKPKDTLMISRTPEVTCVVVDVSHEDPEVKFNWYVDGVEVHN | 1.3 pM | 8.91e-05 s⁻¹ | 6.84e+07 M⁻¹ s⁻¹ | 1.3 pM | – | – | – | – | – | – | – | – |
| protein variant (12), Split CH2 bivalent bispecific antibody (bispecific antibody, human IgG4 S228P, kappa, Four chains; on one arm CH1 and CL are replaced by the split CH2 domain; heavy chains heterodimerize by knob-into-hole mutations) heavy: EVQLKESGPGLVAPGGSLSITCTVSGFSLTDSSINWVRQPPGKGLEWLGMIWGDGRIDYADALKSRLSISKDSSKSQVFLEMTSLRTDDTATYYCARDGYFPYAMDFWGQGTSVTVSSASTKGPSVFPLAPCSRSTSESTAALGCLVKDYFPEPVTVSWNSGALTSGVHTFPAVLQSSGLYSLSSVVTVPSSSLGTKTYTCNVDHKPSNTKVDKRVESKYGPPCPPCPAPEFEGGPSVFLFPPKPKDTLMISRTPEVTCVVVDVSQEDPEVQFNWYVDGVEVHNAKTKPREEQFNSTYRVVSVLTVLHQDWLNGKEYKCKVSNKGLPSSIEKTISKAKGQPREPQVCTLPPSRDELTKNQVSLSCAVKGFYPSDIAVEWESNGQPENNYKTTPPVLDSDGSFFLVSKLTVDKSRWQQGNVFSCSVMHEALHNRFTQKSLSLSPG light: not shown chain 1: DIQMTQSPASLSVSVGDTITLTCHASQNIDVWLSWFQQKPGNIPKLLIYKASNLHTGVPSRFSGSGSGTGFTLTISSLQPEDIATYYCQQAHSYPFTFGGGTKLEIKGGGGGSGGGGGSAKTKPREEQYNSTYRVVSVLTVLHQDWLNGKEYKCKVSNKALPAPIEKTISKAKGQPREGGGSGSAESKYGPPCPPCPAPEFEGGPSVFLFPPKPKDTLMISRTPEVTCVVVDVSQEDPEVQFNWYVDGVEVHNAKTKPREEQFNSTYRVVSVLTVLHQDWLNGKEYKCKVSNKGLPSSIEKTISKAKGQPREPQVYTLPPCRDELTKNQVSLWCLVKGFYPSDIAVEWESNGQPENNYKTTPPVLDSDGSFFLYSKLTVDKSRWQQGNVFSCSVMHEALHNHYTQKSLSLSPG chain 2: QVQLQQSGPELVKPGASVKISCKASGYSFTSYWIHWIKQRPGQGLEWIGMIDPSDGETRLNQRFQGRATLTVDESTSTAYMQLRSPTSEDSAVYYCTRLKEYGNYDSFYFDVWGAGTLVTVSSGGGGPSVFLFPPKPKDTLMISRTPEVTCVVVDVSHEDPEVKFNWYVDGVEVHN | 0.922 pM | – | – | 0.922 pM | – | – | – | – | – | – | – | – |
| protein variant (2), DVD-Fab Split CH2 (anti-IL4/anti-IL13) (bispecific antibody, IgG1, Fab-like format with IgG1 split CH2 domain) chain 1: DIVLTQSPASLAVSLGQRATISCRASESVDSYGQSYMHWYQQKAGQPPKLLIYLASNLESGVPARFSGSGSRTDFTLTIDPVQAEDAATYYCQQNAEDSRTFGGGTKLEIKGGGGSGGGGSDIQMTQSPASLSVSVGDTITLTCHASQNIDVWLSWFQQKPGNIPKLLIYKASNLHTGVPSRFSGSGSGTGFTLTISSLQPEDIATYYCQQAHSYPFTFGGGTKLEIKRTVAAPSVFIFPPSDEQLKSGTASVVCLLNNFYPREAKVQWKVDNALQSGNSQESVTEQDSKDSTYSLSSTLTLSKADYEKHKVYACEVTHQGLSSPVTKSFNRGECGGPSVFLFPPKPKDTLMISRTPEVTCVVVDVSHEDPEVKFNWYVDGVEVHN chain 2: EVQLKESGPGLVAPGGSLSITCTVSGFSLTDSSINWVRQPPGKGLEWLGMIWGDGRIDYADALKSRLSISKDSSKSQVFLEMTSLRTDDTATYYCARDGYFPYAMDFWGQGTSVTVSSGGGGSGGGGSQVQLQQSGPELVKPGASVKISCKASGYSFTSYWIHWIKQRPGQGLEWIGMIDPSDGETRLNQRFQGRATLTVDESTSTAYMQLRSPTSEDSAVYYCTRLKEYGNYDSFYFDVWGAGTLVTVSSASTKGPSVFPLAPSSKSTSGGTAALGCLVKDYFPEPVTVSWNSGALTSGVHTFPAVLQSSGLYSLSSVVTVPSSSLGTQTYICNVNHKPSNTKVDKKVEPKSCDKGGGAKTKPREEQYNSTYRVVSVLTVLHQDWLNGKEYKCKVSNKALPAPIEKTISKAKGQPREHHHHHH | – | – | – | 30 pM | 3.33e+10 M⁻¹ | 30 pM | 0.000426 s⁻¹ | 1.42e+07 M⁻¹ s⁻¹ | 5.73e+10 M⁻¹ | 17.5 pM | 0.000259 s⁻¹ | 1.48e+07 M⁻¹ s⁻¹ |
| protein variant (3), CODV-Fab Split CH2 (anti-IL4/anti-IL13) (bispecific antibody, IgG1, Fab-like cross-over format with IgG1 split CH2 domain) chain 1: DIVLTQSPASLAVSLGQRATISCRASESVDSYGQSYMHWYQQKAGQPPKLLIYLASNLESGVPARFSGSGSRTDFTLTIDPVQAEDAATYYCQQNAEDSRTFGGGTKLEIKGQPKAAPSDIQMTQSPASLSVSVGDTITLTCHASQNIDVWLSWFQQKPGNIPKLLIYKASNLHTGVPSRFSGSGSGTGFTLTISSLQPEDIATYYCQQAHSYPFTFGGGTKLEIKTKGPSVFRTVAAPSVFIFPPSDEQLKSGTASVVCLLNNFYPREAKVQWKVDNALQSGNSQESVTEQDSKDSTYSLSSTLTLSKADYEKHKVYACEVTHQGLSSPVTKSFNRGECGGPSVFLFPPKPKDTLMISRTPEVTCVVVDVSHEDPEVKFNWYVDGVEVHN chain 2: QVQLQQSGPELVKPGASVKISCKASGYSFTSYWIHWIKQRPGQGLEWIGMIDPSDGETRLNQRFQGRATLTVDESTSTAYMQLRSPTSEDSAVYYCTRLKEYGNYDSFYFDVWGAGTLVTVSSSEVQLKESGPGLVAPGGSLSITCTVSGFSLTDSSINWVRQPPGKGLEWLGMIWGDGRIDYADALKSRLSISKDSSKSQVFLEMTSLRTDDTATYYCARDGYFPYAMDFWGQGTSVTVSSASTKGPSVFPLAPSSKSTSGGTAALGCLVKDYFPEPVTVSWNSGALTSGVHTFPAVLQSSGLYSLSSVVTVPSSSLGTQTYICNVNHKPSNTKVDKKVEPKSCDKGGGAKTKPREEQYNSTYRVVSVLTVLHQDWLNGKEYKCKVSNKALPAPIEKTISKAKGQPREHHHHHH | – | – | – | 5.48 pM | – | – | – | – | 1.83e+11 M⁻¹ | 5.48 pM | 0.000452 s⁻¹ | 8.26e+07 M⁻¹ s⁻¹ |
